Experimental data: article PMC6389977, “Dengue virus nonstructural 3 protein interacts directly with human glyceraldehyde-3-phosphate dehydrogenase (GAPDH) and reduces its glycolytic activity” (Scientific Reports, 2019)

B1: purified recombinant human GAPDH protein (enzyme)
chain: not shown
notes: also called glyceraldehyde-3-phosphate dehydrogenase
B2: DENV2 NS1 protein (natural protein)
chain: DSGCVVSWKNKELKCGSGIFITDNVHTWTEQYKFQPESPSKLASAIQKAHEEGICGIRSVTRLENLMWKQITPELNHILSENEVKLTIMTGDIKGIMQAGKRSLQPQPTELKYSWKTWGKAKMLSTESHNQTFLIDGPETAECPNTNRAWNSLEVEDYGFGVFTTNIWLKLREKQDVFCDSKLMSAAIKDNRAVHADMGYWIESALNDTWKIEKASFIEVKSCHWPKSHTLWSNGVLESEMIIPKNFAGPVSQHNYRPGYHTQTAGPWHLGKLEMDFDFCEGTTVVVTEDCGNRGPSLRTTTASGKLITEWCCRSCTLPPLRYRGEDGCWYGMEIRPLKEKEENLVNSLVTA

What was measured:
[1] = molecular target: T1, recombinant full-length DENV2 NS3 protein (dengue virus 2, New Guinea C (NGC) …, UniProt P14340 1476-2093); assay: SPR; conditions: both partners purified
T1 construct: also called full-length NS3
T1 sequence (P14340 1476-2093): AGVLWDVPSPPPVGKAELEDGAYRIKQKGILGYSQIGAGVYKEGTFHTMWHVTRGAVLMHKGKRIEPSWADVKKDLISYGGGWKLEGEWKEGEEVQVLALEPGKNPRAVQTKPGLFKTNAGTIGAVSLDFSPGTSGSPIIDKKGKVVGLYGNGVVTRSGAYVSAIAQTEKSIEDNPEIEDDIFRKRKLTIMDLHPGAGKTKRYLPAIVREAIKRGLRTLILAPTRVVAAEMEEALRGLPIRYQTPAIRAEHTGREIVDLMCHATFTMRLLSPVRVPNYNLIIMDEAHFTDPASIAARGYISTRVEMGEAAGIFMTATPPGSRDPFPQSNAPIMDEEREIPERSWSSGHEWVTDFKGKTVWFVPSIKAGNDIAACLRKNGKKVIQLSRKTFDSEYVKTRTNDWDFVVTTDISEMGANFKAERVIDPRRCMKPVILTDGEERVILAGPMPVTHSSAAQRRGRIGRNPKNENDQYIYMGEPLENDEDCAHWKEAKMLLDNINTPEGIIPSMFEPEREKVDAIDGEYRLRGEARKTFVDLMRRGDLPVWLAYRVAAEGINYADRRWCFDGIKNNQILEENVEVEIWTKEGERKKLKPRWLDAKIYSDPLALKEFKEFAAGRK

[2] = molecular target: B1; assay: SPR; unpublished data; no conditions told; the estimate is given together with the ELISA result of ref. 39

## B1
[1]
  Kd: 0.31 µM

## B2
[2]
  Kd: 2 to 3 µM
